Here are results for 1 molecule from patent publication US20140212888A1 (published 2014).

Assay in all cases: multimer staining
Test [1] has as its target T1, HIV (human immunodeficiency virus) envelope peptide on HLA-A*24:02 (human).
T1 peptide: RYLRDQQLL

Test [2] has as its target T2, WT1 (wildtype WT1 peptide) peptide on HLA-A*24:02 (human).
T2 peptide: CMTWNQMNL

In test [3] the target is T3, WT1 (mutant WT1 peptide: second methionine of the wildtype peptide substituted with tyrosine) peptide on … (human).
T3 peptide: CYTWNQMNL

B1: WT1 TCR A12-3/B5-1 (TCR, V domains shown)
Valpha: QKEVEQDPGPLSVPEGAIVSLNCTYSNSAFQYFMWYRQYSRKGPELLMYTYSSGNKEDGRFTAQVDKSSKYISLFIRDSQPSDSATYLCATSNAGGTSYGKLTFGQGTILTVHP
Vbeta: KAGVTQTPRYLIKTRGQQVTLSCSPISGHRSVSWYQQTPGQGLQFLFEYFSETQRNKGNFPGRFSGRQFSNSRSEMNVSTLELGDSALYLCASSYGERERKGETQYFGPGTRLLVL
Regarding B1, the binding result is listed as “no recognition” in test [1], “recognises” in test [2] and “recognises” in test [3].
